Laboratory results reported in article PMC6978647.
Like-named read-outs stand apart in the source and are kept apart here.

How the values were obtained:
[1] = biological target: aeBlue chromoprotein (Actinia equina); assay: SEC
[2] = biological target: aeBlue chromoprotein (Actinia equina); assay: SEC; remark: listed apart in the source

## aeBlue chromoprotein (natural protein)
[1]
  stoichiometry N: 3.84 subunits
[2]
  stoichiometry N: 4.45 subunits
